{
  "source": "paper PMC3079738",
  "target": "human CD81 expressed on transfected CHO cells (human) (UniProt P60033)",
  "sequence (P60033 whole entry, the tested form may be a part)": "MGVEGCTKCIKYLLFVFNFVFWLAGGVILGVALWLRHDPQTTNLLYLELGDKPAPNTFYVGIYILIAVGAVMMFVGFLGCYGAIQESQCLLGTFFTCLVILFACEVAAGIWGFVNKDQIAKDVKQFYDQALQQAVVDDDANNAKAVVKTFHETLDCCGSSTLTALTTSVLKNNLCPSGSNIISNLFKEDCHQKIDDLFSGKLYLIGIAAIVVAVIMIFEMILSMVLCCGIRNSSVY",
  "experiment": "flow cytometry on cells; CHO cells transfected with human CD81 plasmid (or naive), 5x10^5 cells incubated with crude 293T cell extract containing E2 for 1 h at room temperature in PBS, 2% fetal calf serum, 0.05% NaN3; detected with goat anti-E2 and FITC anti-goat IgG; MFI as percent of wild type E2 on CHO-CD81",
  "data": [
    {"substance": "E2-W529/A, mutant of the carboxyl terminal truncated HCV E2 protein (aa 364-661), strain H77 (from UniProt P27958 364-661) (domain or fragment)", "values": [
      {"measurement": "CD81 binding activity as percent of the wild type protein (MFI)", "value": "< 5", "unit": "%"}
    ]}
  ]
}
